Among the data in doi:10.1101/2022.12.06.518574 are percent as octamer, stoichiometry N and percent of vesicles in the gate that defines DOPG/Sen bound to hPg values, retold here.

The target of experiment [1] is Streptococcus pyogenes enolase, wild type (WT-Sen) (Streptococcus pyogenes (Group A, isolate AP53)). The experiment can be described thus: AUC.
Experiment [2] shares this target. The experiment is described as follows: AUC. The source holds these as a separate data set.
The target is the same in experiment [3]. The experiment can be described thus: cryo-EM structure.
Experiment [4] deals with DOPG/Sen (the Sen variants of Figure 5A-D on DOPG vesicles). The experiment is described as follows: flow cytometry of phospholipid vesicles.

Read-outs that look alike come from different tables or passages of the source.

As usually defined, the stoichiometry N is a count of units in the complex or per binding partner.

Streptococcus pyogenes enolase, wild type (WT-Sen) (enzyme), sequence (A2RFE3 whole entry): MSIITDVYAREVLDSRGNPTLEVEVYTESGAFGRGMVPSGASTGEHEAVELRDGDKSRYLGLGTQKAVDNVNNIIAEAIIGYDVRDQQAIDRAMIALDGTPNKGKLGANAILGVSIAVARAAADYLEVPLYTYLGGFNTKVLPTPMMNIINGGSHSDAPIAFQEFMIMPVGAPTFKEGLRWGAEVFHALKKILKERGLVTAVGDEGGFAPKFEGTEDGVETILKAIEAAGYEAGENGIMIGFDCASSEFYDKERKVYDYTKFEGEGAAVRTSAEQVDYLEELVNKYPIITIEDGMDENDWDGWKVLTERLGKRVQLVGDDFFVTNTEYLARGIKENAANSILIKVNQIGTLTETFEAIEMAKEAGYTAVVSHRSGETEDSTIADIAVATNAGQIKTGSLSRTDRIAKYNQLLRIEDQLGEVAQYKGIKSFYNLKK

Consider “Streptococcus pyogenes enolase, wild type (WT-Sen) (enzyme)”, for which the percent as octamer in experiment [1] and in experiment [2] was greater than 95% throughout. Also, the stoichiometry N in experiment [1], in experiment [2] and in experiment [3] was 8 each time.
In turn, “human plasminogen (hPg) (natural protein)” registered a percent of vesicles in the gate that defines DOPG/Sen bound to hPg in experiment [4] of 83 to 93%.
